In patent US20250250357A1 (NANJING ZAIMING PHARMACEUTICAL, published 2025):
Positions count from the first letter of the chain named.

T1: human MSLN-R1-his protein (human, UniProt Q13421 296-390)
T1 construct: Region 1 of human mesothelin, made in HEK293E cells, His-tagged; also called human MSLN-R1 protein; hMSLN-R1-his; not shown: His tag
T1 chain: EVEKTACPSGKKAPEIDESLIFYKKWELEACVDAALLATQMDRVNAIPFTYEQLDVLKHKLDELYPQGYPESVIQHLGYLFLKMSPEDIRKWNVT

B1: S009-F8-4.5 (antibody, human IgG1, kappa, V domains shown)
VH: QVQLQQPGAELVKPGASVKLSCKASGYTFTIYWMHWVKQRPGQGLEWIGMIHPNSGNTNYNEKFKSKATLTVDKSSSTAYMQLSSLTSEDSAVYYCSLIHWYFDVWGTGTTVTVSS
VL: QIVLTQSPAIMSASPGEKVTMTCSASSSVSYMYWYQQKPGSSPRLLIYDTSNLASGVPVRFSGSGSGTSYSLTISRMEAEDAATYYCQQWSSYPLTFGAGTKLELKR
B2: S009-F8-9.16 (antibody, human IgG1, kappa, V domains shown)
VH: EVHLQQSGPVLVKPGASVKMSCKASGYTFTDYFMNWVKQSHGKSLEWIGVINPHNGYVNYNQKFQGRATLTVDKSSSTVYMELNSLTSEDSAVYHCARSAESAWFAYWGQRTLVTVSA
VL: DVLMTQTPLSLPVSLGDQVSISCRSSQSIVHVKGNTYLEWYLQKPGQSPELLIYKVSNRFSGVPDRFSGGGSGTDFTLKISRVEPEDLGVYYCFQGSHLPYTFGGGTKLEIKR
B3: S009-F8-5.15 (antibody, human IgG1, kappa, V domains shown)
VH: QVQLQQPGTELVKPGASVKLSCKASGYTFTSYWMHWVKQRPGQGLEWIGHSNPSNGGTNYNEKFKSKATLTVDKSSSTAYMQLSSLTSEDSAVYYCARWVRGSNYEYFDVWGTGTTVTVSS
VL: DIVMTQSQKFMSTTVGDRVSIICKASQNVGSAVAWCQQKPGQSPKLLIYSASNRYTGVPDRFTGSGSGTDFTLTISNMQSEDLADYFCQQYSSYPLTFAGGTKLEIKR
B4: S009-F8-8.22 (antibody, human IgG1, kappa, V domains shown)
VH: EVQLQQSGPELVKPGASVKMSCKASGYTFTDYIIHWVKQSHGKSLEWIAYIFPNNGGTGYNQKFRGKATLTVNKSSSTAYMELRSLTSEDSAVYYCARWRLRQYFDVWGTGTTVTVSS
VL: B3 VL with T14I, I22T, S31T, C36Y, A99G

Target: T2, human MSLN-R3-his protein (human, UniProt Q13421 487-598)
T2 construct: Region 3 of human mesothelin, made in HEK293E cells, His-tagged; also called human MSLN-R3 protein; hMSLN-R3-his; not shown: His tag
T2 sequence (Q13421 495-606): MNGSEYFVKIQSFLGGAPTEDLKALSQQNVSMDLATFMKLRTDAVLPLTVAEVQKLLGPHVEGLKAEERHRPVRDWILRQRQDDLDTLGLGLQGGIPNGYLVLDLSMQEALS
Assay: ELISA on coated MSLN-R3; antibody 1 nM

Row | OD450 [OD450] | Binder
1 | 0.05 | B1
2 | 2.23 | B2
3 | 0.04 | B3
4 | 0.05 | B4

Target: T3, human MSLN-R2-his protein (human, UniProt Q13421 391-486)
T3 construct: Region 2 of human mesothelin, made in HEK293E cells, His-tagged; also called human MSLN-R2 protein; hMSLN-R2-his; not shown: His tag
T3 sequence (Q13421 other isoform, or with tags, fused parts or gaps): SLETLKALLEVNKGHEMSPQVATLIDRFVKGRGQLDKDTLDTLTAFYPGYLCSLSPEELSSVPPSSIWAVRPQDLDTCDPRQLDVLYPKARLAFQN
Assay: ELISA on coated MSLN-R2; antibody 0.1 nM

Row | OD450 [OD450] | Binder
5 | 0.05 | B1
6 | 0.04 | B2
7 | 0.04 | B3
8 | 0.04 | B4

Target: T2, human MSLN-R3-his protein
Assay: ELISA on coated MSLN-R3; no antibody (blank)

Row | OD450 [OD450] | Binder
9 | 0.06 | B1
10 | 0.03 | B2
11 | 0.05 | B3
12 | 0.04 | B4

Target: T1, human MSLN-R1-his protein
Assay: ELISA on coated MSLN-R1; no antibody (blank)
Experimental: (§1) The plate was sealed with a plastic film and incubated at 4° C. overnight. The next day, the plate was washed twice with PBST, and a blocking buffer [PBS+2% (w/w) BSA] was added for blocking at room temperature for 2 h. The blocking buffer was discarded, and a chimeric antibody or negative control antibody serially diluted from 100 nM was added at 50 μL/well. After incubation at 37° C. for 2 h, the plate was washed 3 times with PBST. […] After incubation at 37° C. for 2 h, the plate was washed 5 times with PBST. A TMB substrate was added at 50 μL/well for incubation at room temperature for 5-10 min, and then a stop solution (1.0 N HCl) was added at 50 μL/well.

Row | OD450 [OD450] | Binder
13 | 0.05 | B1
14 | 0.04 | B2
15 | 0.05 | B3
16 | 0.06 | B4

Target: T2, human MSLN-R3-his protein
Assay: ELISA on coated MSLN-R3; antibody 0.0001 nM

Row | OD450 [OD450] | Binder
17 | 0.05 | B1
18 | 0.06 | B2
19 | 0.04 | B3
20 | 0.04 | B4

Target: T2, human MSLN-R3-his protein
Assay: ELISA on coated MSLN-R3; antibody 0.01 nM

Row | OD450 [OD450] | Binder
21 | 0.04 | B1
22 | 0.5 | B2
23 | 0.04 | B3
24 | 0.04 | B4

Target: T3, human MSLN-R2-his protein
Assay: ELISA on coated MSLN-R2; antibody 100 nM

Row | OD450 [OD450] | Binder
25 | 0.08 | B1
26 | 0.07 | B2
27 | 0.05 | B3
28 | 0.09 | B4

Target: T2, human MSLN-R3-his protein
Assay: ELISA on coated MSLN-R3; antibody 0.001 nM
Experimental: as §1

Row | OD450 [OD450] | Binder
29 | 0.05 | B1
30 | 0.11 | B2
31 | 0.05 | B3
32 | 0.04 | B4

Target: T1, human MSLN-R1-his protein
Assay: ELISA on coated MSLN-R1; antibody 0.0001 nM
Experimental: as §1

Row | OD450 [OD450] | Binder
33 | 0.05 | B1
34 | 0.04 | B2
35 | 0.04 | B3
36 | 0.08 | B4

Target: T3, human MSLN-R2-his protein
Assay: ELISA on coated MSLN-R2; antibody 0.01 nM

Row | OD450 [OD450] | Binder
37 | 0.05 | B1
38 | 0.04 | B2
39 | 0.04 | B3
40 | 0.04 | B4

Target: T3, human MSLN-R2-his protein
Assay: ELISA on coated MSLN-R2; no antibody (blank)
Experimental: as §1

Row | OD450 [OD450] | Binder
41 | 0.05 | B1
42 | 0.05 | B2
43 | 0.05 | B3
44 | 0.04 | B4

Target: T2, human MSLN-R3-his protein
Assay: ELISA on coated MSLN-R3; antibody 10 nM
Experimental: as §1

Row | OD450 [OD450] | Binder
45 | 0.07 | B1
46 | 2.03 | B2
47 | 0.05 | B3
48 | 0.08 | B4

Target: T2, human MSLN-R3-his protein
Assay: ELISA on coated MSLN-R3; antibody 100 nM

Row | OD450 [OD450] | Binder
49 | 0.12 | B1
50 | 2.4 | B2
51 | 0.06 | B3
52 | 0.15 | B4

Target: T3, human MSLN-R2-his protein
Assay: ELISA on coated MSLN-R2; antibody 1 nM
Experimental: as §1

Row | OD450 [OD450] | Binder
53 | 0.05 | B1
54 | 0.04 | B2
55 | 0.04 | B3
56 | 0.04 | B4

Target: T1, human MSLN-R1-his protein
Assay: ELISA on coated MSLN-R1; antibody 0.001 nM
Experimental: as §1

Row | OD450 [OD450] | Binder
57 | 0.05 | B1
58 | 0.04 | B2
59 | 0.05 | B3
60 | 0.16 | B4

Target: T3, human MSLN-R2-his protein
Assay: ELISA on coated MSLN-R2; antibody 0.001 nM
Experimental: as §1

Row | OD450 [OD450] | Binder
61 | 0.05 | B1
62 | 0.04 | B2
63 | 0.05 | B3
64 | 0.05 | B4

Target: T3, human MSLN-R2-his protein
Assay: ELISA on coated MSLN-R2; antibody 0.0001 nM
Experimental: as §1

Row | OD450 [OD450] | Binder
65 | 0.05 | B1
66 | 0.04 | B2
67 | 0.05 | B3
68 | 0.05 | B4

Target: T1, human MSLN-R1-his protein
Assay: ELISA on coated MSLN-R1; antibody 1 nM
Experimental: as §1

Row | OD450 [OD450] | Binder
69 | 0.05 | B1
70 | 0.04 | B2
71 | 0.68 | B3
72 | 2.46 | B4

Target: T3, human MSLN-R2-his protein
Assay: ELISA on coated MSLN-R2; antibody 10 nM

Row | OD450 [OD450] | Binder
73 | 0.06 | B1
74 | 0.05 | B2
75 | 0.05 | B3
76 | 0.05 | B4

Target: T1, human MSLN-R1-his protein
Assay: ELISA on coated MSLN-R1; antibody 10 nM
Experimental: as §1

Row | OD450 [OD450] | Binder
77 | 0.09 | B1
78 | 0.05 | B2
79 | 1.65 | B3
80 | 2.63 | B4

Target: T1, human MSLN-R1-his protein
Assay: ELISA on coated MSLN-R1; antibody 0.1 nM
Experimental: as §1

Row | OD450 [OD450] | Binder
81 | 0.05 | B1
82 | 0.04 | B2
83 | 0.12 | B3
84 | 1.78 | B4

Target: T2, human MSLN-R3-his protein
Assay: ELISA on coated MSLN-R3; antibody 0.1 nM
Experimental: as §1

Row | OD450 [OD450] | Binder
85 | 0.05 | B1
86 | 1.38 | B2
87 | 0.04 | B3
88 | 0.04 | B4

Target: T1, human MSLN-R1-his protein
Assay: ELISA on coated MSLN-R1; antibody 100 nM

Row | OD450 [OD450] | Binder
89 | 0.24 | B1
90 | 0.09 | B2
91 | 2.29 | B3
92 | 2.63 | B4

Target: T1, human MSLN-R1-his protein
Assay: ELISA on coated MSLN-R1; antibody 0.01 nM
Experimental: as §1

Row | OD450 [OD450] | Binder
93 | 0.05 | B1
94 | 0.04 | B2
95 | 0.05 | B3
96 | 0.61 | B4
